The source of these data is a protein production outcome set (Wang et al. 2014).
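Also: failed if final PepcDB status was selected cloned or expressed and not failed if soluble or beyond.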

This series in a line: label from the status in PepcDB records.
For the sequence “MSTPETYKRSALNPETSLLLFLVPNPSNLTPISYTLTIPPPHEKTMLDKHGLLTQPISDVLRKLTTPMVFGMVAILLFNLVDTFFISLLGTDALAAVSFTFPVTFAVNCITMGIGVGLSASIGHLLGEGHSKHAAELTTHGIILAISLILIACALGFFTIDPLFTLLGAEDKLLPLIDEYMSIWYLTIPLLVIPMSSNSAIRATGDTKTPAKIMMLAGLINGILDPLLIFGYGPFPELGIQGAAIASAISWLGALIASFYVLTHKVKLLALPNKNTLISDWKQILTIGSPAALSNALNPISGAILMMMLASQGTVAVASYGAAQRVESLMLLVIMALTSSLSPLVAQNLGAKQPERVKEAIFLAIKFSVAFQLFLYILIVPLSIPISHLFSQDDAVQHGLWMYLICVPFSYGFQGIVMVLVSSLNAMKKPLYSFSWSFMRLFVFTLPTAWIGSQIYGMEGLFIGIAMGNVMGGISAFWYARTRIRFEDAALEERGDTKS”, the protein production entry is on record as “failed”.

Consider “MAKKKKEILFCDYYEDWVETYKVGAIEDVTLNKYYVAARQLRDICPKLLMSDFSRKDYQLIMNEYGKTHEKQTAKDFHHHIKAAILDAYHDGLLKSDPTYRAVIKGKEPGKKKLEHHHHHH”, for which the protein production entry is recorded as “not failed”.

Consider “MTQSPYWQRIAAKAQAAQRPFFSLAPMEAVTGSVFRRVVMRAAAPDVFYTEFTNALSITHPKAKFTTRGRLYVDEAESPRPIVQLWGNSGEDFTKAAHEVKNQGYQAIDLNMGCPDMAVIKNHSGSDLIRHFDRAKEVIEGARQAELPVSVKTRLGFDDVHEYETWIPFLLQQQVPVLTVHVRTKMEMSKVPAHYELIDNLVQMRDTLAPATLLQINGDILDYQAGLKLAKAHPGVDGIMIGRGIFQNPYAFEPIPQPHSTRDMLELLRYQVDLYDQFIGLGLQGHFAPLQRFFKIYVRGMRHAAELRNELMQTKTTDDVRAIIDRLEAKLPAD”, for which the protein production entry is reported as “failed”.

Take “MENWVIQIIERLGYLGIAFLMFLDNVFPPIPSEIIMPSAGYTASRGQLQIIGVIVAGSLGSILAAAILYALGRQISHAALFRWTDRYGKYLLIQTKDLQIALEWFEKYGHRIVFFGRMIPAVRSLISIPAGMSRMPFWKFMLYSSLGTVIWTTFLAGVGFYFGENQAFMFSIMHRVGYLILAITLMVSVWWIYHKFYKKR”: the protein production entry is “failed”.

Regarding “MRKRGIMSKRLLAVLCMASVTTSLFSFRGLEVKASPNVPYDQKESLAPLGEVYSIETLLNWTPESDPDAKYNRASIELQDRFMGDIVNENANPEAKIMNVALTNPYVDRAPSQGSDSMDAYVFSYWQYVNSYVYWGGSSRGIFALPTPDVVDNAHKNGVPVLATIGFPWGPGEGYVEQVRAFLQKDNNGNFPVADKMIEIAEYYGFDGYFFNQESYGCVKDDADRMVEMLEYIKKKAPNMVIGWYDSMTVDGNVKWQDALNDKNAAFFQNGENRTTDEFFLNYNWTPEKIETTVNTAKSLGRSPFDVYAGLDVQQNAYNTPFNDDYLLDENGKLRLSLAMYTPNSTFSMAKDVYDFYKHDQKFWVGPTGDPSKSDTEQDWTGLANYVPDRSAINDLPFVTNFNLGHGEDYYIDGSLSRDEEWNNRAMQEYLPTWRWIVESNGSKLTPDFDFKTAYNGGSSLKVEGKLEAANPNHIKLYSTDLNIENNSTELSIVYKTESAPNMKVGLCFGENYDEENFTFFDVNKNSNGEWTEVKIPLGDHVGKTISAISLKFESGQDVENFKINVGQISIEETAENNKGLKNSDVILEETMVHNSNSAEARIYWNGLESGNEDDLAFYEIYRIKPDGSRELMGATPNDAYYVQEFERYGEEMEFDIEVVPVDVNYNRGEGKRVTFNWGIPHDATQIPDKKVYENLALYKSVQTSAEGAAEPGLKAVDGKVDNNSKWCAAGAKDGWLTIDLGEPKNIQRWVVKHAEAGGEAKDMNTKDFALEVSYDGGQTYQEVDVVTGNEDAITDRNLENPIVAQHLRLRIDNSGSSPWAAIRIYEFQLYEETFTDQTTEIPMRFVNAKNNKGANDSVLFTRGKEGQTVNLYKGLNDETPFATATIDSNGEAKFEGLDFGEDGGRVYYGTVEEGKRESLRMSAAFEGENWEYSKVPERFELTPYKAPGMNGENHNYGTLKINDLEAGDIVSIFNDKDSIFPEKVSVPVAKGGDTAILDRISINPEGGVLTLEVKSEGKKARRIEVPYSGFGEIEMKIESEAPTNLRTVDVQKKSVSLAWDSPENTYGLEGYIIYKDNKKVGEVSADETEFTVGKLNRHTIYNFKVAAKYSNGEISKRDTITVRTAR”, the protein production result was “failed”.

With “MANLWIHALTVFMGFFAIMNPIANVPIFLSLTEGDDKKTTAMVASRALLLAFLIVTIFSVAGKLIFDLFGITLPAFQITGGLLVFLIGFHMLQGDQSSVQHPSETGKKKSPEAALSVTVSPLAMPILAGPGTIATAMNFSTGENFMEMAVTIVVFGVLCLITYVLFVSGEKFVTYIGASALGVITRMMGLILAVIGAQMVIAGIHGAFGLGAG”, the protein production entry is given as “failed”.

For “MMIKIIREMPHGVAALCLIQAFSTFSYAVQYSSLALFITKQLGIANLSANSIVGLFLSFSYIFQLIGGVIGSRFISNRLLFVTTILIQNMGLFFLAQANPSLLNIGLSLFMVGSGLNVTSSNSMLTQCFIPQDDRRESAFFLSYAGMNVGYCIGYIACGFFDYSNQYQYLLYASILTNSIALLIIIKNWAYLGDKNFPLPNLTKRNWYFIKNILAIAFITFLIPFMRVCFEFANFCNGLVIITCLFMFLIIFILGLKQKSSSDRKKMMAYLILAISSVLFWMIYLTGPMGVTLFVKNNVDKHLFSFELATQWIKNINPVVIIFGAPIMSMLINKLKAKGFHVSAPVQFSCSFVFLALSFLCLIFGIICSNSYGYISIYWIIGHHILQGMSELLLGPVGYALIGRIAPPKLQGILMGTWMLVIGVAASFSQYFSNAMVQSESVDPLITNQDFLTAFKQLGLWSLLCAALLYFVSGKLTRIINGTKDNKSVNESKALPMPYSN”, the protein production result is listed as “failed”.

Turning to “MKNPAEIDVADQQRLESMAVGGLIGFRTLLYKEVLRFWKVSFQTVAAPVLTAVLYLLIFGHVLEDRVRVYDQISYTAFLVPGLVMMSVLQNAFANSSSSLIQSKITGNLVFILLPPLSHWEMFGAYVVASIIRGLCVGLGVLLVTAWFANLHFAHIGWILVFGLMGAGILGTLGLIAGIWAEKFDQLAAFQNFLIMPATFLSGVFYSIHSLPAFWQAVSHANPFFYMIDGFRYGFFGVSDVPPLQSLAVVVVAFVVLAALALRLLRNGYKLRY”, the protein production entry is reported as “failed”.

“MLRFPGQGHHNPDDVVIGLLDLAARVDEALAVQAVAFGLGADEVAVRHQIVLRHLTSPGARAFGATTGDGRLVGFVYGMPNDRTHWWSTVVEPYLRGQGHEDWLDNSFVITELHVHPHFQNHGIGRSLITTITDGAAEPRSILSAIDTESPARGLYHSLGYEDLARQVLFPSAPRPYAVMGAPLPLRRR”: the protein production entry was “failed”.

As for “MDFLTEWIWFFLFVPLAALGGWIVGRRGGQRHGDTQVSRLSSTYFRGLNYLLNEQPDKAIELFLHIAELDKETFETQVALGHLFRRRGEVDRAIRLHQGLVQRGDLTDQQRVQALLALGEDYMKSGLLDRAETVFTELAQLDQRAPQALRHLIGIYQAERDWEKAIDNATRYEEVTGEPMGKLISQFECELADRYRGLGKTDDALQAIARAYQADGTSVRAGILEGRIEAERGHDEAAVRAFERAARHDPEYLPEIIPALMAAYRRVGDIAGARNFLSEMTEHYRGIAPVLALTQLMEAQDGVAPALAYLGRQLKDRPSVRGESALIDLTLAEGSDPVGTLQDLKHITDQLLVRNPSYRCTRCGFGAKTHHWQCPSCKEWGTVKPLLNYAVV”, the protein production entry is recorded as “failed”.

For “MRMIGRRRALEHRITLIAVIVILQLAATLFFLVDVTGDLRADGSGVHIAAEAGAAIALLVGVVFGAAQVRWLVLRARQDEAAVAAAKGALADLARLRFSDWKLTAAEADVALFALKGCDVAEIAALRGAAAGTVRAQLARVYAKAGVNSQSALMALFLEELVEAGEG”, the protein production entry is “failed”.

Turning to “VTVTDDYLANNVDYASGFKGPLPMPPSKHIAIVACMDARLDVYRMLGIKEGEAHVIRNAGCVVTDDVIRSLAISQRLLGTREIILLHHTDCGMLTFTDDDFKRAIQDETGIRPTWSPESYPDAVEDVRQSLRRIEVNPFVTKHTSLRGFVFDVATGKLNEVTP”, the protein production entry was “not failed”.

As for “MTHNHHHQAVDNLLNVFSRASHDLTVVHSKLDKEFQQMYPANANPMKLIQRIKKLQEDVTLLKHQCLDLLSAKQDLIDKAQTTLVGNCNLIQKMNASLGESTNGDTDDALADFNQIIDEWTMQVRSRTVGETEDADKEDINKMLFSAICHTN”, the protein production result is given as “failed”.

On to “MAKKRSKLEIIQAILEACKSGSPKTRIMYGANLSYALTGRYIKMLMDLEIIRQEGKQYMLTKKGEELLEDIRKFNEMRKNMDQLKEKINSVLSIRQ”, for which the protein production entry is on record as “not failed”.

Turning to “METYPITVGGVTRHVPLIEPLPGRRIPLVEFLGDPEFTRAAAEALRPLVPKEAEILFTTETSPIPLTHVLAEALGLPYVVARRRRRPYMEDPIIQEVQTLTLGVGEVLWLDRRFAEKLLNQRVVLVSDVVASGETMRAMEKMVLRAGGHVVARLAVFRQGTPGLAVDTVAELPVL”, the protein production entry was “not failed”.

With “MSHTLKSVAEDWFAIKKTTITEVTAKSLWRKFENHVFPKLGHRPIDKILAPEAIEALKPLAAKGNLETTGKIIGHLNNIMTHAVNTGILHHNPLSGIRSAFSAPKVTNLEHHHHHH”, the protein production entry is listed as “not failed”.

With “MAATTGLETLVDQIISVITNDGRNIVGVLKGFDQATNIILDESHERVFSTKEGVQQHVLGLYIIRGDNIGVIGELDEELDASLDFSKLRAHPLKPVVH”, the protein production result is given as “failed”.

Take “MDTLQFQKNPETAAKMSAYMKHQFVFAGIPAPERQALSKQLLKESHTWPKEKLCQEIEAYYQKTEREYQYVAIDLALQNVQRFSLEEVVAFKAYVPQKAWWDSVDAWRKFFGSWVALHLTELPTIFALFYGAENFWNRRVALNLQLMLKEKTNQDLLKKAIIYDRTTEEFFIQKAIGWSLRQYSKTNPQWVEELMKELVLSPLAQREGSKYLAKASE”: the protein production entry was “not failed”.

Consider “MKFRRHTKAIRSLAGSLISHASAFAPALFAAIIAAIVVWVATNWRLERSLADERSVVAGELATISSRLQTNLNSNVKLLQGLAAGIAVDPAMGQNRFSKLAAQILQPDSQLRSFAAAPDMVVQWVYPETGNEKAIGLDYRKNEKQRAAAMLARNTHNIVLTGPVELVQGGTAFVVRCPVYIDDGNSQIFWGLLSGIIDIPRLYRDSGLGSTDLEIAISTTPEPNSPKQVFFGGLETFEKKPVVASVDMTYGRWSLAALPRHGWGQNNGIGTFELYASLLALCVVAPIVWVGFLTKSRQKTIEKLRLHKSKLVRARQRLEHLSLHDALTGLPNRRFVDQMISQPPRPDPQDRLILIHIDLDRFKEINDTKGHAGGDMVLQTTASRLADLTGPNDVAARIGGDEFVFASWSTDPEPKAAELARQIVDALQQTIFIDGAGYVVGASVGVAWETESARDRDLGQLLLNADLALYEAKKAGRGRAAVFTEELRSAAIHAKELADEFNQALERDELVAFFQPQFNANTLDIAGVEALARWDHPRKGLLGPNAFLDAAEKLGRSGDMDRLILQKALFELTRWDGLGMHIPRVSVNISARRLAQANLLAELSALPAAKDRLCFELLETISFDELQPALNEVIPAIKALGIEIEIDDFGTEHASIVSLLRFEPRRLKIDREIIKPIIASPSQRRLVSSIIEIGRSQNIDIVAEGVETMEHAKILKDLGCHLLQGYALARPMSSDQLIEFCRMKGTGTAKASR”, for which the protein production result is given as “failed”.

On to “VEASFCLGDNWQFLYVNDATCRMTEYSREQLLSMNLQDIDVDFALHDWEEIRQKNNYTFKTRYRSQSGRIFLVEMSLTFLEDQERRFSCVFVREKS”, for which the protein production result is recorded as “failed”.

“MAKRCALTFKGPMIGNHVSHANNKNKRRLLPNLRSIKIQLDDGTTKRIKVAASTLRTMRKGALEHHHHHH”: the protein production result is reported as “not failed”.

“MIKYILGIVIFIAIVLVAITIGANNDQIITFNYIVAESQFQLSSLVAILFGLGLILGWLITAFFYIKLKLKNMALARQVKRQTLQINELTTTRDKVV”: the protein production result was “failed”.
